We go through one substance from patent publication US20150184163A1.

This test has as its target TSLP Receptor (TSLPR), heterodimer of the IL7 receptor alpha (IL7Rα) chain and the TSLP-specific receptor chain (TSLPR; Crlf2), on mouse DRG sensory neurons (mouse) (UniProt Q8CII9). The test can be described thus: cell-based or functional assay.

Chain of TSLP Receptor (TSLPR), heterodimer of the IL7 receptor alpha (IL7Rα) chain and the TSLP-specific receptor chain (TSLPR; Crlf2), on mouse DRG sensory neurons (mouse) (Q8CII9 20-359, chain 1 of 2): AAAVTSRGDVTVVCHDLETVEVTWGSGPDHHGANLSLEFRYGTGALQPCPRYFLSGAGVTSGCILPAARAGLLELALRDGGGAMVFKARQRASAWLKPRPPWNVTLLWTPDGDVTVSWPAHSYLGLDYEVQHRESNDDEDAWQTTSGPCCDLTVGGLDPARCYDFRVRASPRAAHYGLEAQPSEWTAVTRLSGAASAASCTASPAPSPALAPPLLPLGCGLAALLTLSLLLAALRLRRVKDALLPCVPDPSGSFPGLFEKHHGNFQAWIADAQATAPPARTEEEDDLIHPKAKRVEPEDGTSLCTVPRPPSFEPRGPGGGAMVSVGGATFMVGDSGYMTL
Chain of TSLP Receptor (TSLPR), heterodimer of the IL7 receptor alpha (IL7Rα) chain and the TSLP-specific receptor chain (TSLPR; Crlf2), on mouse DRG sensory neurons (mouse) (P16872 21-459, chain 2 of 2, further chain): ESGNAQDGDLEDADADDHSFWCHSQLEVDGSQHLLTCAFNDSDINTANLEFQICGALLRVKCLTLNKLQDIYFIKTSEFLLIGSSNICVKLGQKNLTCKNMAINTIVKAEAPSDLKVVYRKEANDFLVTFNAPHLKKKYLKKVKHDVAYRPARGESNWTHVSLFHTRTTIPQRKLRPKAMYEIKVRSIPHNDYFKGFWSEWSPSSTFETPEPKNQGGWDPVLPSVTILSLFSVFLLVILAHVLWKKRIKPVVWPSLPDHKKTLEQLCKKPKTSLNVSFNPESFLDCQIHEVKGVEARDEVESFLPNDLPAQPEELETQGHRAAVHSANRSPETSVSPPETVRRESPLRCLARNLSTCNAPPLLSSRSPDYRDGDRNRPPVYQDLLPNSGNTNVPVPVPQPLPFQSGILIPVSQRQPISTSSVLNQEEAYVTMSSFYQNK

“Thymic Stromal Lymphopoietin (TSLP) (ligand)”: the prevalence of DRG neurons with increases in intracellular Ca2+ following TSLP application (ratiometric Ca2+ imaging) amounted to 4.1%.
